Consider 21 sequences from the supplement of paper PMC12764529.

± gives the half width of the 95% confidence interval.

A short description of data set [1]: folding stability dG unfold (combined trypsin and chymotrypsin); higher = more stable. The method in brief:
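Bayesian fitting of sequencing counts gave K50 for each design. Unfolding free energy followed by setting this against a sequence-predicted unfolded-state K50 and a shared folded-state K50, either per protease or with trypsin and chymotrypsin combined. The designs, under 80 residues and lacking cysteine, were digested in a PA-tagged cDNA display format at 11 threefold-diluted protease concentrations and without protease, and only those with AlphaFold2 dimer inter-PAE above 15 were kept.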

A short description of data set [2]: folding stability dG unfold from trypsin proteolysis; higher = more stable. How it is done: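 Folding stability of de novo designed mini-proteins (<80 aa, no Cys; designed by TrROS, TrMRF, ProteinMPNN and the joint model) was measured by cDNA display proteolysis with trypsin and chymotrypsin. Each protease was used at 11 concentrations in a threefold dilution series plus a no-protease condition. K50 was inferred by Bayesian fitting of sequencing counts, and dG unfold was derived against a sequence-predicted unfolded-state K50 (Tsuboyama et al. method). Sequences shown include variable-length N-terminal GS-type padding (SAGGSAGG...) inside a display construct carrying a PA tag. Rows were kept only if the AF2 dimer inter-PAE was >15, to exclude likely homo-oligomers.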

In the case of “SAKLTPEEIEELAEKLAKELAEKEGIEKVEVKVEKKEDGKVTVEIRFEKNKKTIRIEFENGEVKIVEIESAG [r14_925_TrROS_Hall]”, the “folding stability dG unfold” value in data set [1] worked out at 2.97 ± 0.72 kcal/mol; in data set [2], 2.62 ± 0.39 kcal/mol.

On to “SAMDIEIEPTEGMMEIKLPGKEIHIMQHPNYMHIQIKYPEGEPVSIPIDPNSPPEDMIDNLLKLLEKAGSAG [r14_618_TrROS]”, for which the results for the “folding stability dG unfold” value in data set [1] and in data set [2] were -0.499 ± 0.55 kcal/mol and 0.425 ± 0.042 kcal/mol, respectively.

Turning to “SAMLVVLKDPKTGKLILVDPEQLSPEYLERGVEPVREIPPLEVVEVESEEEAEEIRKKYPEKILVTLGPSAG [r14_638_JUSTAS]”, the figures for the “folding stability dG unfold” value in data set [1] and in data set [2] were -0.121 ± 0.26 kcal/mol and 0.68 ± 0.1 kcal/mol, respectively.

With “SANFDKAPPIEVKTEVSSFPADEEKIDPKTGKKSKRKRTITPVTVTKDGKTYTSTTTTYPDGSTETTTSSAG [r14_225_JUSTAS]”, the “folding stability dG unfold” value in data set [1] is -0.249 ± 0.24 kcal/mol; in data set [2], -0.0456 ± 0.2 kcal/mol.

Take “SAPDNIKVDINIERNPEDGHIRVEMEIEYPDGNEVYHSAWIDPDNGKIEIDVQVPNGKQIAEETIQIKPSAG [r14_524_TrROS]”: the entries for the “folding stability dG unfold” value in data set [1] and in data set [2] were below -1 kcal/mol and 0.166 ± 0.097 kcal/mol, respectively.

With “SAPVKDKNGKKREVEIHIWVPEEERKKNGTPEQIKWLARERARAAGLKPDRIKEVKIKIMPPEDMPEGFSAG [r14_446_TrROS]”, the “folding stability dG unfold” value was below -1 kcal/mol in data set [1] and -0.729 ± 0.54 kcal/mol in data set [2].

For “SDLRNMPIEELAKRIAREHGIEDVKVEVSRTGDSLTIPIEIRDPEQGMKYKVMIMVDPPDDGRIGIGVERSA [r9_1042_TrROS]”, the “folding stability dG unfold” value in data set [1] worked out at 0.0221 ± 0.42 kcal/mol; in data set [2] it was 0.275 ± 0.29 kcal/mol.

Consider “SETVTIEVEIEVKLPDGSTYRVRLTVEFDKETGKITLKMTVEYNGKTYEVELSEEEIKALLDELLKKLGLSA [r9_1136_TrROS_Hall]”, for which the “folding stability dG unfold” value in data set [1] is above 6 kcal/mol; in data set [2], 4.22 ± 0.29 kcal/mol.

In the case of “SFRIEPDPDGTVTVRIPKDFPNKPAEEIADYIQKAFGPGMKIDKDIKIEPDPENGWVEITVKVKLPPGAKSA [r9_1011_TrROS]”, the “folding stability dG unfold” value in data set [1] came to 0.0899 ± 0.33 kcal/mol; in data set [2], 0.913 ± 0.16 kcal/mol.

“SIERPGGEPVTLTVTVERPPGVRTTRTFTTPASELEARRGRDVTDEEIIAAVKEELAAAGDRALAVTVDRTS [r1_338_JUSTAS]”: the “folding stability dG unfold” value in data set [1] was below -1 kcal/mol; in data set [2] it was -0.807 ± 0.68 kcal/mol.

As to “SKEILEAEVEEILKLLPESLKPDVPRELVFPGVKITVTKYEPVDKNKGGKKPTTVVTIELPEGPVTIPLPSA [r9_279_JUSTAS]”, the “folding stability dG unfold” value is -0.531 ± 0.18 kcal/mol in data set [1] and 0.548 ± 0.034 kcal/mol in data set [2].

For the sequence “SKTVEIPIRNPNGMQVNIMANPEKGKVMIHMGNNMPFENIKKALRELLPPGKDVDITTHPNGMAVIELKPSA [r9_933_TrROS]”, the entries for the “folding stability dG unfold” value in data set [1] and in data set [2] were -0.734 ± 0.43 kcal/mol and -0.277 ± 0.19 kcal/mol, respectively.

Turning to “SMEIKVTVEEKDGKKYVTIEIKLSEEELKGKELTEEEIEELARELAKKLGIKEVKIERLPNGTYRIVIELSA [r9_883_TrROS_Hall]”, the “folding stability dG unfold” value in data set [1] is above 6 kcal/mol; in data set [2], 4.47 ± 0.39 kcal/mol.

In the case of “SMKLKITIPLPGNNEINIEIEIKPYFDPNTKKLYFEANIKVTFTYYIPGFDKPFSFTSEFKFRFELSDDLSA [r9_140_TrMRF]”, the entries for the “folding stability dG unfold” value in data set [1] and in data set [2] were above 6 kcal/mol and 4.46 ± 0.16 kcal/mol, respectively.

“SMLTSPDGTSVTIETKVSPSAGPLPPFFEQTYDPSKDTITVNAPASPEEVAAIRAAPGLETLAVTFTPAESA [r9_827_JUSTAS]”: the “folding stability dG unfold” value is below -1 kcal/mol in data set [1] and -0.874 ± 0.23 kcal/mol in data set [2].

In the case of “SMRLVPVPVRSADGRASVDEIRAAIREALPEGLRVDFGEEFIERALREAERRYGGRLRPDDFPILVPVLGSA [r9_197_TrMRF]”, the “folding stability dG unfold” value in data set [1] is below -1 kcal/mol; in data set [2], -0.209 ± 0.15 kcal/mol.

For the sequence “SMYRIEVVRDGKPIPREAVEAAAEAIERARGRPISPEALARELASVPNTVVTVEAYDEPGKPLGTLTFAESA [r9_1045_TrMRF]”, the “folding stability dG unfold” value in data set [1] was -0.703 ± 0.37 kcal/mol; in data set [2], -0.253 ± 0.17 kcal/mol.

As to “SPIILPGASTVTINATVTVEPRDPATGTVLSSRDLPVPVTVTTNADGTVTITVDVPADVPADAAVTVDLTSA [r9_90_JUSTAS]”, the figures for the “folding stability dG unfold” value in data set [1] and in data set [2] were -0.338 ± 0.1 kcal/mol and 0.239 ± 0.018 kcal/mol, respectively.

As to “SPKIEIEPMPPNMFIAKIRDPEKNKKVSIHIPPNMPPGQPMQVYDPDKPKWVPFNEIEELLKKGLPVEIYSA [r9_250_TrROS]”, the “folding stability dG unfold” value in data set [1] was -0.496 ± 0.98 kcal/mol; in data set [2], 0.0989 ± 0.23 kcal/mol.

As to “SPLTPEQIEELAKEIAQEFPNVKVKIYPNDEPIEIKAPGAEIEIWPPPGEFYIQIEFPGNGKPKQIPIPPSA [r9_1062_TrROS]”, the entries for the “folding stability dG unfold” value in data set [1] and in data set [2] were -0.583 ± 0.25 kcal/mol and 0.00765 ± 0.051 kcal/mol, respectively.

For “SYRPITIQMPSPEDLKKLEEAFEDDGFENVNIHRDPPGWHTITITQKGPPEQLQDRIREAFDENGFQIQPSA [r9_1003_TrROS]”, the “folding stability dG unfold” value in data set [1] was below -1 kcal/mol; in data set [2], 0.0855 ± 0.11 kcal/mol.
